In paper doi:10.1101/2024.06.20.599867 (bioRxiv, 2024):

Target: the molecule itself
Test: cryo-EM structure

B1: ABC transporter MsbA (His-tagged, E. coli) (natural protein)
chain: MHNDKDLSTWQTFRRLWPTIAPFKAGLIVAGVALILNAASDTFMLSLLKPLLDDGFGKTDRSVLVWMPLVVIGLMILRGITSYVSSYCISWVSGKVVMTMRRRLFGHMMGMPVSFFDKQSTGTLLSRITYDSEQVASSSSGALITVVREGASIIGLFIMMFYYSWQLSIILIVLAPIVSIAIRVVSKRFRNISKNMQNTMGQVTTSAEQMLKGHKEVLIFGGQEVETKRFDKVSNRMRLQGMKMVSASSISDPIIQLIASLALAFVLYAASFPSVMDSLTAGTITVVFSSMIALMRPLKSLTNVNAQFQRGMAACQTLFTILDSEQEKDEGKRVIERATGDVEFRNVTFTYPGRDVPALRNINLKIPAGKTVALVGRSGSGKSTIASLITRFYDIDEGEILMDGHDLREYTLASLRNQVALVSQNVHLFNDTVANNIAYARTEQYSREQIEEAARMAYAMDFINKMDNGLDTVIGENGVLLSGGQRQRIAIARALLRDSPILILDEATSALDTESERAIQAALDELQKNRTSLVIAHRLSTIEKADEIVVVEDGVIVERGTHNDLLEHRGVYAQLHKMQFGQ
- binding result: binds
